Starred links: 1 amine or outer side, 2 acyl side, 3 side chain; linkers in the order of their positions; H or OH if unused. Non-standard residues stand in square brackets, D forms with d. Groups on a side chain read outwards from the residue. No end group written: not given here. *: point of attachment. 2OEGgEgE‑C15DA = 2OEGgEgE-C15 diacid linker-lipid on the Lys side chain, O=C(O)CCCCCCCCCCCCCC(=O)N[C@@H](CCC(=O)N[C@@H](CCC(=O)NCCOCCOCC(=O)NCCOCCOCC(=O)*)C(=O)O)C(=O)O; 2OEGgE‑C16DA = O=C(O)CCCCCCCCCCCCCCC(=O)N[C@@H](CCC(=O)NCCOCCOCC(=O)NCCOCCOCC(=O)*)C(=O)O; G2E3 = linker of 2 Gly and 3 Glu (read GGEEE); C15 diacid = O=C(O)CCCCCCCCCCCCCC(=O)*; γGlu = O=C(O)[C@H](CCC(=O)[*:2])N[*:1]; NMeY = CN[C@@H](Cc1ccc(O)cc1)C(=O)O; AEEA = NCCOCCOCC(=O)O; Aib = CC(C)(N)C(=O)O
Experiments:
[1] = biological target: T1, full-length human GIPR with an N-terminal FLAG tag (human, UniProt P48546 22-466); assay: cell-based or functional assay
T1 sequence (looked up): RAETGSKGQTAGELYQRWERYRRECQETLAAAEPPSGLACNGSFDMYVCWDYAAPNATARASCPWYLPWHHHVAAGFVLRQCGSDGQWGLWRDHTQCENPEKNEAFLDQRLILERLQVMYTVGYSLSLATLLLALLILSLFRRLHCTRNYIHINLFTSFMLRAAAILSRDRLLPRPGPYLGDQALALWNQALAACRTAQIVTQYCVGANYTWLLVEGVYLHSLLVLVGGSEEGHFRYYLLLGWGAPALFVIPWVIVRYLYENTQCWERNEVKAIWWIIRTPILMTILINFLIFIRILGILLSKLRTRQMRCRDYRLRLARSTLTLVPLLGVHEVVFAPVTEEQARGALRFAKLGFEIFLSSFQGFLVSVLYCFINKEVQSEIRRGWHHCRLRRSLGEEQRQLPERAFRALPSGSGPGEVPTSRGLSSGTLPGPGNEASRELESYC

[2] = biological target: full-length human GLP-1R with an N-terminal FLAG tag (human, UniProt P43220 24-463); assay: cell-based or functional assay

B1: Compound 142 (peptide)
peptide: YXEGTFISDYSIXXDRXAQXDFVNWLLAQRG
modifications: Me-Tyr1; Aib 2,13,17,20; Km14 = Lys(GGGGG-C15 diacid) (Table 3 prints the linker 'GS'); C-term OH
- Human GIPR cAMP, HEK293T EC50 [1]: 0.0001 nM

Binder: [NMeY][Aib]EGTFISDYSI[Aib]LDR[Aib]AQ[Aib]K([Gly-Gly-Glu-Glu-Glu-C15 diacid])FVNWLLAQK-NH2 [Compound 113]
- Human GIPR cAMP, HEK293T EC50 [1]: 0.0004 nM

Binder: [NMeY][Aib]EGTFISDYSI[Aib]KDR[Aib]AQ[Aib]NFVNWLLAQRPSSGAPPPS-NH2 (not fully specified (residue 14)) [Compound 120]
- Human GIPR cAMP, HEK293T EC50 [1]: 0.0004 nM

B2: Compound 14 (peptide)
peptide: [NMeY][Aib]EGTFISDYSIALDR[Aib]AQ[Aib]K([AEEA-AEEA-γGlu-γGlu-C15 diacid])FVNWLLAQR-NH2
modifications: not fully specified (N-terminus); also: C-term NH2 in mods, C_TER column prints OH
- Human GIPR cAMP, HEK293T EC50 [1]: 0.0004 nM

Binder: Me-Y[Aib]EGTFISDYSI[Aib]LDR[Aib]AQ[Aib]NFVNWLLAQK([2OEG-γGlu-γGlu-C15 diacid])PSSGAPPPS-NH2 [Compound 21]
- Human GIPR cAMP, HEK293T EC50 [1]: 0.0003 nM

Binder: Me-Y[Aib]EGTFISDYSIALDR[Aib]K([AEEA-AEEA-γGlu-γGlu-C15 diacid])Q[Aib]NFVNWLLAQSPSSGAPPPS-NH2 [Compound 17]
- Human GIPR cAMP, HEK293T EC50 [1]: 0.0004 nM

Binder: Me-Y[Aib]EGTFISDYSI[Aib]LDRKAQ[Aib]NFVNWLLAQRPSSGAPPPS-NH2 (not fully specified (residues 1, 17)) [Compound 20]
- Human GIPR cAMP, HEK293T EC50 [1]: 0.0003 nM

Binder: Y[Aib]EGTFISDYSI[Aib]KDR[Aib]AQ[Aib]NFVNWLLAQR-NH2 (not fully specified (residues 1, 14)) [Compound 59]
- Human GIPR cAMP, HEK293T EC50 [1]: 0.0004 nM

B3: Compound 86 (peptide)
peptide: [NMeY][Aib]EGTFISDYSIALDR[Aib]AQ[Aib]K([AEEA-γGlu-γGlu-C15 diacid])FVNWLLAQR-NH2
modifications: N-terminus assumed
SMILES: CC[C@H](C)[C@H](NC(=O)[C@H](CO)NC(=O)[C@H](Cc1ccc(O)cc1)NC(=O)[C@H](CC(=O)O)NC(=O)[C@H](CO)NC(=O)[C@@H](NC(=O)[C@H](Cc1ccccc1)NC(=O)[C@@H](NC(=O)CNC(=O)[C@H](CCC(=O)O)NC(=O)C(C)(C)NC(=O)[C@H](Cc1ccc(O)cc1)NC)[C@@H](C)O)[C@@H](C)CC)C(=O)N[C@@H](C)C(=O)N[C@@H](CC(C)C)C(=O)N[C@@H](CC(=O)O)C(=O)N[C@@H](CCCNC(=N)N)C(=O)NC(C)(C)C(=O)N[C@@H](C)C(=O)N[C@@H](CCC(N)=O)C(=O)NC(C)(C)C(=O)N[C@@H](CCCCNC(=O)COCCOCCNC(=O)CC[C@H](NC(=O)CC[C@H](NC(=O)CCCCCCCCCCCCCC(=O)O)C(=O)O)C(=O)O)C(=O)N[C@@H](Cc1ccccc1)C(=O)N[C@H](C(=O)N[C@@H](CC(N)=O)C(=O)N[C@@H](Cc1c[nH]c2ccccc12)C(=O)N[C@@H](CC(C)C)C(=O)N[C@@H](CC(C)C)C(=O)N[C@@H](C)C(=O)N[C@@H](CCC(N)=O)C(=O)N[C@@H](CCCNC(=N)N)C(N)=O)C(C)C
- Human GIPR cAMP, HEK293T EC50 [1]: 0.0014 nM

Binder: Me-Y[Aib]EGTFISDYSIALDR[Aib]KQ[Aib]NFVNWLLAQSPSSGAPPPS-NH2 (not fully specified (residues 1, 18)) [Compound 144]
- Human GIPR cAMP, HEK293T EC50 [1]: 0.0001 nM

Binder: Me-Y[Aib]EGTFISDYSIALDR[Aib]AQ[Aib]KFVNWLLAQKG-OH (not fully specified (residues 1, 21)) [Compound 143]
- Human GIPR cAMP, HEK293T EC50 [1]: 0.0004 nM

Binder: [NMeY][Aib]EGTFISDYSIALDK[Aib]AQ[Aib]NFVNWLLAK([AEEA-AEEA-γGlu-C15 diacid])S-OH (not fully specified) [Compound 35]
- Human GIPR cAMP, HEK293T EC50 [1]: 0.0003 nM

B4: Compound 25 (peptide)
peptide: [NMeY][Aib]EGTFISDYSIALDR[Aib]AQ[Aib]K([AEEA-AEEA-γGlu-γGlu-C15 diacid])FVNWLLAQKG-OH
modifications: N-terminus assumed
SMILES: CC[C@H](C)[C@H](NC(=O)[C@H](CO)NC(=O)[C@H](Cc1ccc(O)cc1)NC(=O)[C@H](CC(=O)O)NC(=O)[C@H](CO)NC(=O)[C@@H](NC(=O)[C@H](Cc1ccccc1)NC(=O)[C@@H](NC(=O)CNC(=O)[C@H](CCC(=O)O)NC(=O)C(C)(C)NC(=O)[C@H](Cc1ccc(O)cc1)NC)[C@@H](C)O)[C@@H](C)CC)C(=O)N[C@@H](C)C(=O)N[C@@H](CC(C)C)C(=O)N[C@@H](CC(=O)O)C(=O)N[C@@H](CCCNC(=N)N)C(=O)NC(C)(C)C(=O)N[C@@H](C)C(=O)N[C@@H](CCC(N)=O)C(=O)NC(C)(C)C(=O)N[C@@H](CCCCNC(=O)COCCOCCNC(=O)COCCOCCNC(=O)CC[C@H](NC(=O)CC[C@H](NC(=O)CCCCCCCCCCCCCC(=O)O)C(=O)O)C(=O)O)C(=O)N[C@@H](Cc1ccccc1)C(=O)N[C@H](C(=O)N[C@@H](CC(N)=O)C(=O)N[C@@H](Cc1c[nH]c2ccccc12)C(=O)N[C@@H](CC(C)C)C(=O)N[C@@H](CC(C)C)C(=O)N[C@@H](C)C(=O)N[C@@H](CCC(N)=O)C(=O)N[C@@H](CCCCN)C(=O)NCC(=O)O)C(C)C
- Human GIPR cAMP, HEK293T EC50 [1]: 0.0005 nM

Binder: [NMeY][Aib]EGTFISDYSIALDRKAQ[Aib]NFVNWLLAQSPSSGAPPPS-OH (not fully specified (residue 17)) [Compound 54]
- Human GIPR cAMP, HEK293T EC50 [1]: 0.0001 nM

B5: Compound 111 (peptide)
peptide: [NMeY][Aib]EGTFISDYSI[Aib]LDR[Aib]K(2OEGgEgE‑C15DA)Q[Aib]NFVNWLLAQSPSSGAPPPS-NH2
modifications: N-terminus assumed
SMILES: CC[C@H](C)[C@H](NC(=O)[C@H](Cc1ccccc1)NC(=O)[C@@H](NC(=O)CNC(=O)[C@H](CCC(=O)O)NC(=O)C(C)(C)NC(=O)[C@H](Cc1ccc(O)cc1)NC)[C@@H](C)O)C(=O)N[C@@H](CO)C(=O)N[C@@H](CC(=O)O)C(=O)N[C@@H](Cc1ccc(O)cc1)C(=O)N[C@@H](CO)C(=O)N[C@H](C(=O)NC(C)(C)C(=O)N[C@@H](CC(C)C)C(=O)N[C@@H](CC(=O)O)C(=O)N[C@@H](CCCNC(=N)N)C(=O)NC(C)(C)C(=O)N[C@@H](CCCCNC(=O)COCCOCCNC(=O)COCCOCCNC(=O)CC[C@H](NC(=O)CC[C@H](NC(=O)CCCCCCCCCCCCCC(=O)O)C(=O)O)C(=O)O)C(=O)N[C@@H](CCC(N)=O)C(=O)NC(C)(C)C(=O)N[C@@H](CC(N)=O)C(=O)N[C@@H](Cc1ccccc1)C(=O)N[C@H](C(=O)N[C@@H](CC(N)=O)C(=O)N[C@@H](Cc1c[nH]c2ccccc12)C(=O)N[C@@H](CC(C)C)C(=O)N[C@@H](CC(C)C)C(=O)N[C@@H](C)C(=O)N[C@@H](CCC(N)=O)C(=O)N[C@@H](CO)C(=O)N1CCC[C@H]1C(=O)N[C@@H](CO)C(=O)N[C@@H](CO)C(=O)NCC(=O)N[C@@H](C)C(=O)N1CCC[C@H]1C(=O)N1CCC[C@H]1C(=O)N1CCC[C@H]1C(=O)N[C@@H](CO)C(N)=O)C(C)C)[C@@H](C)CC
- Human GIPR cAMP, HEK293T EC50 [1]: 0.0004 nM

Binder: Y[Aib]EGTFISDYSIAK([G2E3-C15 diacid])DR[Aib]AQ[Aib]NFVNWLLAQRPSSGAPPPS-OH (not fully specified (residue 1); also: Me-Tyr methyl position not given here) [Compound 49]
- Human GIPR cAMP, HEK293T EC50 [1]: 0.0002 nM

Binder: [NMeY][Aib]EGTFISDYSIAKDR[Aib]AQQNFVNWLLAQK (not fully specified (residue 14, N-terminus)) [Compound 2]
- Human GLP1R cAMP HEK293T EC50 [2]: 1000 nM

B6: Compound 50 (peptide)
peptide: Y[Aib]EGTFISDYSIAKDR[Aib]AQ[Aib]NFVNWLLAQRPSSGAPPPS-OH
modifications: not fully specified (residues 1, 14); also: Me-Tyr methyl position not given here
- Human GIPR cAMP, HEK293T EC50 [1]: 0.0004 nM

Binder: [NMeY][Aib]EGTFISDYSIAKDR[Aib]AQQNFVNWLLAQK (not fully specified (residue 14)) [Compound 3]
- Human GLP1R cAMP HEK293T EC50 [2]: 692 nM

Binder: [NMeY][Aib]EGTFISDYSIAK(2OEGgE‑C16DA)DR[Aib]AQQNFVNWLLAQK [Compound 1]
- Human GLP1R cAMP HEK293T EC50 [2]: 871 nM

Binder: Me-Y[Aib]EGTFISDYSIALDR[Aib]AQ[Aib]KFVNWLLAQKG-OH (not fully specified (residues 1, 21)) [Compound 148]
- Human GIPR cAMP, HEK293T EC50 [1]: 0.0011 nM

Binder: Me-Y[Aib]EGTFISDYSI[Aib]K([AEEA-AEEA-γGlu-γGlu-C15 diacid])DR[Aib]AQ[Aib]NFVNWLLAQRPSSGAPPPS-NH2 [Compound 19]
- Human GIPR cAMP, HEK293T EC50 [1]: 0.0004 nM

Binder: [NMeY][Aib]EGTFISDYSIAK([G5-γGlu-C15 diacid])DR[Aib]AQ[Aib]DFVNWLLAQSPSSGAPPPS-NH2 [Compound 79]
- Human GIPR cAMP, HEK293T EC50 [1]: 0.0002 nM

— patent US20220227830A1, “QD DOSING OF GIP RECEPTOR AGONIST PEPTIDE COMPOUNDS AND USES THEREOF” (Takeda Pharmaceutical Company Limited, priority 2020, published 2022)
